The results in this text go back to IntAct's records for PubMed 24207126.

The labels stand for the following.
B1: Eukaryotic translation initiation factor 4E-binding protein 2 (Homo sapiens), Q13542 (parent)
chain: MSSSAGSGHQPSQSRAIPTRTVAISDAAQLPHDYCTTPGGTLFSTTPGGTRIIYDRKFLLDRRNSPMAQTPPCHLPNIPGVTSPGTLIEDSKVEVNNLNNLNNHDRKHAVGDDAQFEMDI

The variants in the first experiment derive from B1. The conditions noted are these: with if4e_human EIF4E.
Turning to MSSSAGSGHQPSQSRAIPTRTVAISDAAQLPHDYCTTPGGTLFSTTPGGTRIIYDRKFLLDRRNSPMAQTPPCHLPNAAAAASPGTLIEDSKVEVNNLNNLNNHDRKHAVGDDAQFEMDI [I78A;P79A;G80A;V81A;T82A], the “effect of a mutation on the interaction” value was “decreasing interaction strength”.
Same read-out and setting: next, MSSSAGSGHQPSQSRAIPTRTVAISDAAQLPHDYCTTPGGTLFSTTPGGTRIIADRKFALDRRNSPMAQTPPCHLPNIPGVTSPGTLIEDSKVEVNNLNNLNNHDRKHAVGDDAQFEMDI [Y54A;L59A]: “decreasing interaction strength”.

The variants in the next experiment derive from B1. The conditions noted are these: with if4e_human EIF4E. The source holds these as a separate data set.
Regarding MSSSAGSGHQPSQSRAIPTRTVAISDAAQLPHDYCTTPGGTLFSTTPGGTRIIADRKFALDRRNSPMAQTPPCHLPNAAAAASPGTLIEDSKVEVNNLNNLNNHDRKHAVGDDAQFEMDI [Y54A;L59A;I78A;P79A;G80A;V81A;T82A], the “effect of a mutation on the interaction” value is listed as “disrupting interaction strength”.
